# From article PMC10397247
# B1: P6SH (peptide)
# chain: DKNEELKREIKELEWENEELERKIEELKR
# B2: O12-bH (peptide)
# chain: DEIQELEKKIEELKRKNWELKKKNQELKR
# B3: 4H1406-bA (peptide)
# chain: DENAQLEQKIAELKQKNAELKWKIAQLKQ
# Legend:
# Assay in all cases: two-hybrid library CCNG1;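 also: natural log of median RNA to DNA barcode read ratio; higher means stronger binding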
# [1] = target: T1, P7SH
# T1 chain: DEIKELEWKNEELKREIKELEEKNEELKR
# [2] = target: T2, P8SH
# T2 chain: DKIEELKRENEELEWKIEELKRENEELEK
# [3] = target: T3, P6SH
# T3 chain: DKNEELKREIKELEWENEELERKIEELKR
# [4] = target: T4, O14-bH
# T4 chain: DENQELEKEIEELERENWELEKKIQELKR
# [5] = target: T5, O6-bH
# T5 chain: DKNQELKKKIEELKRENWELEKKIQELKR
# [6] = target: T6, O13-bH
# T6 chain: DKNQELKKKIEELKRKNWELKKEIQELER
# [7] = target: T7, O2-bH
# T7 chain: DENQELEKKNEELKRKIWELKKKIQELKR
# [8] = target: T8, O8-bH
# T8 chain: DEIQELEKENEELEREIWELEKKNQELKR
# [9] = target: T9, O7-bH
# T9 chain: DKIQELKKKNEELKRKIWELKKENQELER
# [10] = target: T10, O16-bH
# T10 chain: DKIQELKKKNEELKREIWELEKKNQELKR
# [11] = target: T11, O9-bH
# T11 chain: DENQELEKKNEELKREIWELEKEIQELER
# [12] = target: T12, O5-bH
# T12 chain: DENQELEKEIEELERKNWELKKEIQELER
# [13] = target: T13, O12-bH
# T13 chain: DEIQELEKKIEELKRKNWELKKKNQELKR
# [14] = target: T14, O3-bH
# T14 chain: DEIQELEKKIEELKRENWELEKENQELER
# [15] = target: T15, O15-bH
# T15 chain: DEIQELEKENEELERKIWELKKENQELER
# [16] = target: T16, O4-bH
# T16 chain: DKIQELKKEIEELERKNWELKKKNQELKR
# [17] = target: T17, 4H3592-bA
# T17 chain: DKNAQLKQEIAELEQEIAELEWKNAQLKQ
# [18] = target: T18, 4H1406-bA
# T18 chain: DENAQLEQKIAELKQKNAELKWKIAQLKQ
# [19] = target: T19, 4H3601-bA
# T19 chain: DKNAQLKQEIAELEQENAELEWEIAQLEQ
# [20] = target: T20, 4H3907-bA
# T20 chain: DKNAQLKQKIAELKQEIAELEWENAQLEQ
# [21] = target: T21, 4H2134-bA
# T21 chain: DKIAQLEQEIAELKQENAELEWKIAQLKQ
# [22] = target: T22, 4H4038-bA
# T22 chain: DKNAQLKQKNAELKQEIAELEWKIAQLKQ
binder,measurement,setting,value
B1,interaction score,[1],0.762
same,interaction score,[2],0.565
same,interaction score,[3],0.574
B2,interaction score,[4],-1.38
same,interaction score,[5],0.619
same,interaction score,[6],0.332
same,interaction score,[7],-1.26
same,interaction score,[8],1.12
same,interaction score,[9],-0.37
same,interaction score,[10],-0.436
same,interaction score,[11],0.102
same,interaction score,[12],-1.26
same,interaction score,[13],0.775
same,interaction score,[14],1.56
same,interaction score,[15],0.483
same,interaction score,[16],1.12
B3,interaction score,[17],0.233
same,interaction score,[18],-0.836
same,interaction score,[19],1.83
same,interaction score,[20],0.571
same,interaction score,[21],1.62
same,interaction score,[22],-0.125
